# In IntAct's records for PubMed 17599067:
# B1: Inhibitor of nuclear factor kappa-B kinase subunit epsilon (Homo sapiens), Q14164 (parent)
# chain: MQSTANYLWHTDDLLGQGATASVYKARNKKSGELVAVKVFNTTSYLRPREVQVREFEVLRKLNHQNIVKLFAVEETGGSRQKVLVMEYCSSGSLLSVLESPENAFGLPEDEFLVVLRCVVAGMNHLRENGIVHRDIKPGNIMRLVGEEGQSIYKLTDFGAARELDDDEKFVSVYGTEEYLHPDMYERAVLRKPQQKAFGVTVDLWSIGVTLYHAATGSLPFIPFGGPRRNKEIMYRITTEKPAGAIAGAQRRENGPLEWSYTLPITCQLSLGLQSQLVPILANILEVEQAKCWGFDQFFAETSDILQRVVVHVFSLSQAVLHHIYIHAHNTIAIFQEAVHKQTSVAPRHQEYLFEGHLCVLEPSVSAQHIAHTTASSPLTLFSTAIPKGLAFRDPALDVPKFVPKVDLQADYNTAKGVLGAGYQALRLARALLDGQELMFRGLHWVMEVLQATCRRTLEVARTSLLYLSSSLGTERFSSVAGTPEIQELKAAAELRSRLRTLAEVLSRCSQNITETQESLSSLNRELVKSRDQVHEDRSIQQIQCCLDKMNFIYKQFKKSRMRPGLGYNEEQIHKLDKVNFSHLAKRLLQVFQEECVQKYQASLVTHGKRMRVVHETRNHLRLVGCSVAACNTEAQGVQESLSKLLEELSHQLLQDRAKGAQASPPPIAPYPSPTRKDLLLHMQELCEGMKLLASDLLDNNRIIERLNRVPAPPDV
# partner: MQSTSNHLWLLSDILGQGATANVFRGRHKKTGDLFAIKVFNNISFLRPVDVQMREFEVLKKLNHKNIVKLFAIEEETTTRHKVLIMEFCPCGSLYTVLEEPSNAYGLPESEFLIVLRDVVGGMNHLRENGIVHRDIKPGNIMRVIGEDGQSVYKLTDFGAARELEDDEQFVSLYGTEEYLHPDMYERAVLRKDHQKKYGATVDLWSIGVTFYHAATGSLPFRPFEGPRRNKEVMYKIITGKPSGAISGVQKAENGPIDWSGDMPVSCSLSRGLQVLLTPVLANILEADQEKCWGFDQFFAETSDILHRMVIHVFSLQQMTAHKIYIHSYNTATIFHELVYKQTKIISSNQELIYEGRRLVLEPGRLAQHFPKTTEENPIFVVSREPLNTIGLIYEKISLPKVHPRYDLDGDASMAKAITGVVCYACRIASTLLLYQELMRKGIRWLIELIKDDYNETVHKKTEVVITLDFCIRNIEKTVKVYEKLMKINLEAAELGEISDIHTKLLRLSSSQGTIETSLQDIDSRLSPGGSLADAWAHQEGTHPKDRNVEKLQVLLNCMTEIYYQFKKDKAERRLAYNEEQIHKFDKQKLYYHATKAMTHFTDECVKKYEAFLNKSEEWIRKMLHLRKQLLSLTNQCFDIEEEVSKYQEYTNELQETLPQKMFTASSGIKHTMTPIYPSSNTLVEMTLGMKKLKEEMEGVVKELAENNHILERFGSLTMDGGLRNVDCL
# B2: Serine/threonine-protein kinase TBK1 (Homo sapiens), Q9UHD2 (parent)
# chain: B1 partner
# partner: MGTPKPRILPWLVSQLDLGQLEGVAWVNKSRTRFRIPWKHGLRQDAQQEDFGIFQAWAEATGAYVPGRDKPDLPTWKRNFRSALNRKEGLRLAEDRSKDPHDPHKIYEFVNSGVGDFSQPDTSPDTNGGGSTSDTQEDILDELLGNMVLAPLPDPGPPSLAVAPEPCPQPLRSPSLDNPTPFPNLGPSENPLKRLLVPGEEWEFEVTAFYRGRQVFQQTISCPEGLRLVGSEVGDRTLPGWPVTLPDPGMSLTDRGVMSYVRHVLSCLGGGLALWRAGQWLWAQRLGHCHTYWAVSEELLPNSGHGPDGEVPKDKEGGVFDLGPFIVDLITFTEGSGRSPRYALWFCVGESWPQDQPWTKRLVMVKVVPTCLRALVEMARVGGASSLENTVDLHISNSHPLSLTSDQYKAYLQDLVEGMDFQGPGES
# Variants of: B1
# Conditions: with tbk1_human TBK1, Q9UHD2
row,Variant,effect of a mutation on the interaction
1,F354A,increasing interaction
2,L353A,increasing interaction

# Variants of: B2
# Conditions: with irf3_human IRF3, Q14653
row,Variant,effect of a mutation on the interaction
1,L352A,disrupting interaction
2,I353A,disrupting interaction
